From article PMC3085893 (European journal of cell biology, 2011) come the findings set out here.

The target of assay [1] is GST-Src SH3 domain (UniProt P12931 84-145). Nature of the assay: pull-down.
For assay [2], the target named is GST-cortactin SH3 domain (UniProt Q14247 492-550). Nature of the assay: pull-down.
Chain of GST-cortactin SH3 domain (Q14247 492-550): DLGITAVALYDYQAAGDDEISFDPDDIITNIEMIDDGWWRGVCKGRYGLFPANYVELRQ

B1: GFP-AFAP1 (Actin Filament-Associated Protein of 110 kDa) (natural protein, UniProt Q8N556 1-730, looked up)
chain: MEELIVELRLFLELLDHEYLTSTVREKKAVITNILLRIQSSKGFDVKDHAQKQETANSLPAPPQMPLPEIPQPWLPPDSGPPPLPTSSLPEGYYEEAVPLSPGKAPEYITSNYDSDAMSSSYESYDEEEEDGKGKKTRHQWPSEEASMDLVKDAKICAFLLRKKRFGQWTKLLCVIKDTKLLCYKSSKDQQPQMELPLQGCNITYIPKDSKKKKHELKITQQGTDPLVLAVQSKEQAEQWLKVIKEAYSGCSGPVDSECPPPPSSPVHKAELEKKLSSERPSSDGEGVVENGITTCNGKEQVKRKKSSKSEAKGTVSKVTGKKITKIISLGKKKPSTDEQTSSAEEDVPTCGYLNVLSNSRWRERWCRVKDNKLIFHKDRTDLKTHIVSIPLRGCEVIPGLDSKHPLTFRLLRNGQEVAVLEASSSEDMGRWIGILLAETGSSTDPEALHYDYIDVEMSASVIQTAKQTFCFMNRRVISANPYLGGTSNGYAHPSGTALHYDDVPCINGSLKGKKPPVASNGVTGKGKTLSSQPKKADPAAVVKRTGSNAAQYKYGKNRVEADAKRLQTKEEELLKRKEALRNRLAQLRKERKDLRAAIEVNAGRKPQAILEEKLKQLEEECRQKEAERVSLELELTEVKESLKKALAGGVTLGLAIEPKSGTSSPQSPVFRHRTLENSPISSCDTSDTEGPVPVNSAAVLKKSQAAPGSSPCRGHVLRKAKEWELKNGT
For B1, the “fold increase in the ratio pulled down over GST control” value in assay [1] came to 14 fold.

B2: GFP-AFAP1L1 (Actin Filament Associated Protein 1 Like 1) (natural protein, human, UniProt Q8TED9 1-768, looked up)
chain: MDRGQVLEQLLPELTGLLSLLDHEYLSDTTLEKKMAVASILQSLQPLPAKEVSYLYVNTADLHSGPSFVESLFEEFDCDLSDLRDMPEDDGEPSKGASPELAKSPRLRNAADLPPPLPNKPPPEDYYEEALPLGPGKSPEYISSHNGCSPSHSIVDGYYEDADSSYPATRVNGELKSSYNDSDAMSSSYESYDEEEEEGKSPQPRHQWPSEEASMHLVRECRICAFLLRKKRFGQWAKQLTVIREDQLLCYKSSKDRQPHLRLALDTCSIIYVPKDSRHKRHELRFTQGATEVLVLALQSREQAEEWLKVIREVSKPVGGAEGVEVPRSPVLLCKLDLDKRLSQEKQTSDSDSVGVGDNCSTLGRRETCDHGKGKKSSLAELKGSMSRAAGRKITRIIGFSKKKTLADDLQTSSTEEEVPCCGYLNVLVNQGWKERWCRLKCNTLYFHKDHMDLRTHVNAIALQGCEVAPGFGPRHPFAFRILRNRQEVAILEASCSEDMGRWLGLLLVEMGSRVTPEALHYDYVDVETLTSIVSAGRNSFLYARSCQNQWPEPRVYDDVPYEKMQDEEPERPTGAQVKRHASSCSEKSHRVDPQVKVKRHASSANQYKYGKNRAEEDARRYLVEKEKLEKEKETIRTELIALRQEKRELKEAIRSSPGAKLKALEEAVATLEAQCRAKEERRIDLELKLVAVKERLQQSLAGGPALGLSVSSKPKSGETANKPQNSVPEQPLPVNCVSELRKRSPSIVASNQGRVLQKAKEWEMKKT
On to B2, for which the “fold increase in the ratio pulled down over GST control” value in assay [2] is around 9 fold.
